Measurements as given in patent US11795460B2, “Compositions and methods for TTR gene editing and treating ATTR amyloidosis” (Intellia Therapeutics, Inc., priority 2017, dated 2023).
Strand notation (5' to 3'): a small letter for the sugar, then the base; units joined by * are phosphorothioate-linked, units joined directly phosphodiester-linked; [ ] holds rarer units or linkages, { } end groups; capitals alone tell only the bases. m = 2'-O-methyl; r = 2'-OH (RNA)

B1: G000497: TTR sgRNA modified sequence, Human, SEQ ID No. 104; guide sequence of CR003335 (nucleic acid)
guide: mC*mU*mG*rCrUrCrCrUrCrCrUrCrUrGrCrCrUrUrGrCrGrUrUrUrUrArGrAmGmCmUmAmGmAmAmAmUmAmGmCrArArGrUrUrArArArArUrArArGrGrCrUrArGrUrCrCrGrUrUrArUrCrAmAmCmUmUmGmAmAmAmAmAmGmUmGmGmCmAmCmCmGmAmGmUmCmGmGmUmGmCmU*mU*mU*mU
B2: G000487: TTR sgRNA modified sequence, Human, SEQ ID No. 94; guide sequence of CR003357 (nucleic acid)
guide: mU*mU*mC*rUrUrUrGrGrCrArArCrUrUrArCrCrCrArGrGrUrUrUrUrArGrAmGmCmUmAmGmAmAmAmUmAmGmCrArArGrUrUrArArArArUrArArGrGrCrUrArGrUrCrCrGrUrUrArUrCrAmAmCmUmUmGmAmAmAmAmAmGmUmGmGmCmAmCmCmGmAmGmUmCmGmGmUmGmCmU*mU*mU*mU
B3: G000498: TTR sgRNA modified sequence, Human, SEQ ID No. 105; guide sequence of CR003359 (nucleic acid)
guide: mA*mG*mU*rGrArGrUrCrUrGrGrArGrArGrCrUrGrCrArGrUrUrUrUrArGrAmGmCmUmAmGmAmAmAmUmAmGmCrArArGrUrUrArArArArUrArArGrGrCrUrArGrUrCrCrGrUrUrArUrCrAmAmCmUmUmGmAmAmAmAmAmGmUmGmGmCmAmCmCmGmAmGmUmCmGmGmUmGmCmU*mU*mU*mU
B4: G000496: TTR sgRNA modified sequence, Human, SEQ ID No. 103; guide sequence of CR005304 (nucleic acid)
guide: mG*mG*mC*rCrGrUrGrCrArUrGrUrGrUrUrCrArGrArArGrUrUrUrUrArGrAmGmCmUmAmGmAmAmAmUmAmGmCrArArGrUrUrArArArArUrArArGrGrCrUrArGrUrCrCrGrUrUrArUrCrAmAmCmUmUmGmAmAmAmAmAmGmUmGmGmCmAmCmCmGmAmGmUmCmGmGmUmGmCmU*mU*mU*mU
B5: G000492: TTR sgRNA modified sequence, Human, SEQ ID No. 99; guide sequence of CR003342 (nucleic acid)
guide: mC*mU*mU*rCrUrCrUrArCrArCrCrCrArGrGrGrCrArCrGrUrUrUrUrArGrAmGmCmUmAmGmAmAmAmUmAmGmCrArArGrUrUrArArArArUrArArGrGrCrUrArGrUrCrCrGrUrUrArUrCrAmAmCmUmUmGmAmAmAmAmAmGmUmGmGmCmAmCmCmGmAmGmUmCmGmGmUmGmCmU*mU*mU*mU
B6: G000495: TTR sgRNA modified sequence, Human, SEQ ID No. 102; guide sequence of CR003343 (nucleic acid)
guide: mC*mA*mG*rArGrGrArCrArCrUrUrGrGrArUrUrCrArCrGrUrUrUrUrArGrAmGmCmUmAmGmAmAmAmUmAmGmCrArArGrUrUrArArArArUrArArGrGrCrUrArGrUrCrCrGrUrUrArUrCrAmAmCmUmUmGmAmAmAmAmAmGmUmGmGmCmAmCmCmGmAmGmUmCmGmGmUmGmCmU*mU*mU*mU
B7: G000491: TTR sgRNA modified sequence, Human, SEQ ID No. 98; guide sequence of CR003338 (nucleic acid)
guide: mA*mU*mA*rCrCrArGrUrCrCrArGrCrArArGrGrCrArGrGrUrUrUrUrArGrAmGmCmUmAmGmAmAmAmUmAmGmCrArArGrUrUrArArArArUrArArGrGrCrUrArGrUrCrCrGrUrUrArUrCrAmAmCmUmUmGmAmAmAmAmAmGmUmGmGmCmAmCmCmGmAmGmUmCmGmGmUmGmCmU*mU*mU*mU
B8: G000485: TTR sgRNA modified sequence, Human, SEQ ID No. 92; guide sequence of CR003336 (nucleic acid)
guide: mC*mC*mU*rCrCrUrCrUrGrCrCrUrUrGrCrUrGrGrArCrGrUrUrUrUrArGrAmGmCmUmAmGmAmAmAmUmAmGmCrArArGrUrUrArArArArUrArArGrGrCrUrArGrUrCrCrGrUrUrArUrCrAmAmCmUmUmGmAmAmAmAmAmGmUmGmGmCmAmCmCmGmAmGmUmCmGmGmUmGmCmU*mU*mU*mU

System: TTR
Test: TTR editing in primary human hepatocytes treated with LNP formulated Spy Cas9 mRNA (SEQ ID NO: 2) and sgRNAs (Table 16)
Format: cell-based
Conditions: LNP formulated Spy Cas9 mRNA (SEQ ID NO: 2) and sgRNA, 72 hours
Procedure: (§1) Primary liver hepatocytes. Primary human liver hepatocytes (PHH) and primary cynomolgus liver hepatocytes (PCH) (Gibco) were cultured per the manufacturer's protocol (Invitrogen, protocol 11.28.2012). In brief, the cells were thawed and resuspended in hepatocyte thawing medium with supplements (Gibco, Cat. CM7000) followed by centrifugation at 100 g for 10 minutes for human and 80 g for 4 minutes for cyno. The supernatant was discarded and the pelleted cells resuspended in hepatocyte plating medium plus supplement pack (Invitrogen, Cat. A1217601 and CM3000). Cells were counted and plated on Bio-coat collagen I coated 96-well plates (ThermoFisher, Cat. 877272) at a density of 33,000 cells/well for human or 60,000 cells/well for cyno (or 65,000 cells/well when assaying effects on TTR protein, described further below). Plated cells were allowed to settle and adhere for 6 or 24 hours in a tissue culture incubator at 37° C. and 5% CO2 atmosphere. After incubation cells were checked for monolayer formation and media was replaced with hepatocyte culture medium with serum-free supplement pack (Invitrogen, Cat. A1217601 and CM4000).
(§2) In general, the lipid nanoparticle components were dissolved in 100% ethanol with the lipid component of various molar ratios. The RNA cargos were dissolved in 25 mM citrate, 100 mM NaCl, pH 5.0, resulting in a concentration of RNA cargo of approximately 0.45 mg/mL. The LNPs were formulated with a lipid amine to RNA phosphate (N:P) molar ratio of about 4.5 or about 6, with the ratio of mRNA to gRNA at 1:1 by weight.
(§3) The LNPs were formed by microfluidic mixing of the lipid and RNA solutions using a Precision Nanosystems NanoAssemblr™ Benchtop Instrument, according to the manufacturer's protocol. A 2:1 ratio of aqueous to organic solvent was maintained during mixing using differential flow rates. After mixing, the LNPs were collected, diluted in water (approximately 1:1 v/v), held for 1 hour at room temperature, and further diluted with water (approximately 1:1 v/v) before final buffer exchange. The final buffer exchange into 50 mM Tris, 45 mM NaCl, 5% (w/v) sucrose, pH 7.5 (TSS) was completed with PD-10 desalting columns (GE). If required, formulations were concentrated by centrifugation with Amicon 100 kDa centrifugal filters (Millipore). The resulting mixture was then filtered using a 0.2 μm sterile filter. The final LNP was stored at −80° C. until further use.
(§4) To quantitatively determine the efficiency of editing at the target location in the genome, sequencing was utilized to identify the presence of insertions and deletions introduced by gene editing.
(§5) Primers were designed around the target site within the gene of interest (e.g. TTR), and the genomic area of interest was amplified.
(§6) Additional PCR was performed per the manufacturer's protocols (Illumina) to add chemistry for sequencing. The amplicons were sequenced on an Illumina MiSeq instrument. The reads were aligned to a reference genome (e.g., the human reference genome (hg38), the cynomologus reference genome (mf5), the rat reference genome (rn6), or the mouse reference genome (mm10)) after eliminating those having low quality scores. The resulting files containing the reads were mapped to the reference genome (BAM files), where reads that overlapped the target region of interest were selected and the number of wild type reads versus the number of reads which contain an insertion, substitution, or deletion was calculated.
(§7) The editing percentage (e.g., the “editing efficiency” or “percent editing” or “indel frequency”) is defined as the total number of sequence reads with insertions/deletions (“indels”) or substitutions over the total number of sequence reads, including wild type.
(§8) Lipid nanoparticle formulations of modified sgRNAs targeting human TTR and the cyno matched sgRNA sequences were tested on primary human hepatocytes and primary cyno hepatocytes in a dose response curve. Primary human and cyno hepatocytes were plated as described in Example 1. […]

Question: With B1 as the molecule, how does the “12.5 ng mRNA, 3.9 nM sgRNA Avg % Edit” value read?
Answer: 15.10%

Question: With B2 as the molecule, how does the “12.5 ng mRNA, 3.9 nM sgRNA Avg % Edit” value read?
Answer: 17.37%

Question: B3 was tested. Which “12.5 ng mRNA, 3.9 nM sgRNA Avg % Edit” value did it give?
Answer: 24.43%

Question: B4 was tested. Which “12.5 ng mRNA, 3.9 nM sgRNA Avg % Edit” value did it give?
Answer: 30.73%

Question: B5 was tested. Which “12.5 ng mRNA, 3.9 nM sgRNA Avg % Edit” value did it give?
Answer: 15.87%

Question: Which “12.5 ng mRNA, 3.9 nM sgRNA Avg % Edit” value does the source give for B6 here?
Answer: 23.97%

Question: For B7, which “12.5 ng mRNA, 3.9 nM sgRNA Avg % Edit” value is on record?
Answer: 31.60%

Question: How did the “12.5 ng mRNA, 3.9 nM sgRNA Avg % Edit” value turn out when B8 was run?
Answer: 14.23%

System: TTR
Test: TTR editing in primary cyno hepatocytes treated with LNP formulated Spy Cas9 mRNA (SEQ ID NO: 2) and sgRNAs (Tables 17, 18)
Format: cell-based, cynomolgus monkey
Conditions: Table 17, LNP formulated Spy Cas9 mRNA (SEQ ID NO: 2) and sgRNA, 12.5 ng mRNA, 3.9 nM sgRNA, 72 hours
Procedure: as §1, §2, §3, §4, §5, §6, §7, §8

Question: How did the “12.5 ng mRNA, 3.9 nM sgRNA Avg % Edit” value turn out when B1 was run?
Answer: 0.23%

Question: Which “12.5 ng mRNA, 3.9 nM sgRNA Avg % Edit” value does the source give for B3 here?
Answer: 37.90%

Question: For B5, which “12.5 ng mRNA, 3.9 nM sgRNA Avg % Edit” value is on record?
Answer: 0.70%

Question: For B6, which “12.5 ng mRNA, 3.9 nM sgRNA Avg % Edit” value is on record?
Answer: 0.73%

Question: How did the “12.5 ng mRNA, 3.9 nM sgRNA Avg % Edit” value turn out when B7 was run?
Answer: 6.37%

Question: For B8, which “12.5 ng mRNA, 3.9 nM sgRNA Avg % Edit” value is on record?
Answer: 1.43%
